In the supplement of paper PMC10567573:

B1: ADAMTS4 (parent)
chain: SFRKFRYGYNNVVTIPAGATHILV
B2: UBE2R2 (parent)
chain: DPQSGELPSERWNPTQNVRTILLS

Variants of: B1
Assay: protein stability index of a GFP-peptide fusion (GPS, HEK-293T) (PSI 1-6); higher = more stable
Settings: c terminus: a fixed tail appended
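Note: lentivirally expressed fusions sorted by FACS into six bins by GFP to DsRed ratio, PSI derived from sequencing read proportions per bin multiplied by bin number.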

Protein stability index of substitutions, site by site:
R6: V 2.5, S 2.95, F 3.68, K 3, G 2.57, M 3.49, H 2.76, T 2.37, D 2.22, N 2.5, Q 3.44, P 3.56, L 3.25, C 4.22, I 2.3, A 1.91
S1: V 2.17, I 2.62, N 2, D 2.25, P 2.22, F 2.34, A 4.18, C 2.8, R 2.79, K 2.07, M 2.99, Q 2.67, E 3.35, T 1.61, L 2.08, H 1.73, Y 2.22
R3: S 2.58, C 3.97, D 1.61, W 2.24, Y 2.37, Q 2.14, K 3.1, A 2.45, M 1.83, H 1.76, F 3.06, N 2.89, I 3.31, L 3.11, G 2.75, E 2.13, T 1.6, V 2.99
F2: V 1.99, D 2.13, P 2.15, L 1.75, G 2.97, N 1.76, E 1.79, K 1.9, M 2.96, Q 2.91, C 3.07, R 2.18, Y 1.8, I 2.03, H 1.68, A 1.94, S 2.19, W 2.38, T 1.62
K4: N 3.74, L 2.71, E 1.51, T 2.68, R 2.88, W 3.02, Q 3.78, D 1.76, G 2.05, F 2.78, V 1.97, S 2.6, P 3.29, M 2.08, H 2.56, C 2.55, Y 3.11, A 3.08
F5: Y 1.98, D 2.21, V 3.85, N 1.84, L 2.78, E 2.51, Q 1.92, W 2.87, R 3.02, M 3.23, T 2.98, H 1.66, S 1.87, G 2.3, K 1.77, A 2.44, P 1.88

Variants of: B2
Assay: as above
Settings: c terminus: a fixed tail appended

Protein stability index, by site and new letter:
L23: W 3.79, N 4.87, D 4.91, Q 4.65, E 4.47, K 4.74, Y 3.22
L22: T 4.1, D 4.43, K 4.41, G 4.5, C 4.12, A 4.31, P 4.7, I 3.05, M 4.11
T15: S 3.39, A 3.15, I 2.78, R 3.76, P 3.14, F 2.51, K 3.5, E 3.6, Q 3.63, Y 3.22, G 3.53, C 3.26, H 3.79
G5: T 3.93, Q 3.77, P 2.66, V 3.27, N 3.96, F 3.18
T20: S 4.1, A 3.64, G 2.9, C 2.92, Y 2.46, W 2.93, M 3.67, L 2.79
S9: W 2.58, Y 2.92, M 3.87, G 3.27, K 3.94, R 3.43, N 3.8, H 3.47, P 3.43
E10: I 2.55, H 3.14, A 2.98, L 2.98, R 3.17, W 2.39, T 3.48, N 3.35, K 3.05, M 3.09, V 2.6
P8: I 2.69, Y 3.34, L 3.55, M 3.66, E 3.82, H 3.59, Q 3.57, S 3.48, K 3.58, V 3.33, F 3.27, W 3.05
E6: W 2.89, F 2.3, D 3.44, V 3.17, T 3.37, H 3.25, Q 3.49, C 3.02
S24: Y 2.04, C 2.35, Q 4.07, R 3.16, T 3.14, M 2.23, V 2.81, L 1.56
L7: P 4.68, T 4.12, S 3.79, Y 3.06, D 4.51, C 3.29, H 3.67, R 3.81, K 3.81, F 3.2
N17: E 3.56, W 2.59, G 4.3, H 3.04, S 2.9, K 3.23, Y 2.38, I 2.24, A 3.06, R 3.4
P14: Q 3.93, W 3.12, H 2.98, C 3.35, I 2.8, Y 3.01, G 3.71, F 2.32
I21: W 3.55, Q 4.18, C 4.33, R 4.52, N 4.6, G 4.81, H 4.49, F 3.96, D 4.6, M 4.12
R11: V 3.62, F 2.82, A 3.77, Y 2.82, I 2.77, Q 4.04, C 3.76, T 3.98, W 2.79, S 3.56, L 3.24, G 4.23
D1: R 3.17, V 2.35, F 2.58, K 3.7, L 3.58, C 3.93, H 3.34, G 3.26, N 3.09
Q3: S 3.41, M 3.53, Y 2.42, F 4.05, I 3.24, T 4.11, D 3.9, A 3.67
N13: F 2.66, L 3.47, R 3.31, G 2.46, Y 3.16, A 3.78, D 4.22, Q 3.87, S 4, I 2.87
P2: F 2.81, T 3.52, A 3.66, N 3.35, M 3.16, G 3.06, E 3.59, W 2.34, K 3.95
S4: D 3.79, C 3.61, T 3.16, I 3.4, F 3.49, H 3.45, V 3.41, L 3.6, Y 2.39, A 3.15
W12: Y 4.07, M 4.1, R 4.31, N 4.48, A 4.61, C 3.94, P 4.4, I 4.35
R19: V 2.28, D 4.43, K 3.95, S 4.08, C 3.05, Y 2.11, Q 3.81, L 2.61, G 3.7, P 3.87, A 3.61, E 4.76
V18: D 3.83, L 3.27, T 4.04, Y 3.34, F 3.61, G 4, W 3.24, E 4.06, S 3.92, R 4.14, H 4, I 3.97, P 3.63, Q 4.2
Q16: E 2.95, N 3.48, W 2.54, T 4.14, A 3.67, L 2.88, D 3.97, Y 2.54
